Assay [1] deals with T1, Recombinant human PDGF-C from R&D Systems (1687-CC/CF; Val235-Gly345) (human, UniProt Q9NRA1 235-345).
T1 construct: Used in SPR (Cat. 1687-CC/CF) and the PathHunter assay; also called PDGF-CC
Put plainly: SPR as in Example 3. As to the method: (§1) The different antibodies were each separately coated to a CM5 chip at a density of 1680 RU using standard amine chemistry. Different concentrations (200, 175, 150, 125, 100, 75, 50, 25, 12.5, 6.25, 3.125 & 0 nM) of PDGF-C (R&D Systems, Cat. 1687-CC/CF) were injected over the coated antibody for 5 min, then buffer was flowed for 10 min to monitor the dissociation of the captured antigen. The surface was regeneration between each run with a single injection of glycine-HCl, pH 2.5. Affinities were obtained by analyzing the sensorgrams with the help of the BIAevaluation 4.1 software assuming a 1:1 interaction. The experiment was performed with a Biacore 3000 instrument.
The affinity of the above-listed exemplary humanized anti-PDGF-C antibodies for PDGF-C was analysed (as in Example 3) and the humanized antibodies were subsequently assessed in the in vitro bioassay described in Example 4. A technical problem with the (preparation of) humanized antibody 5H7 may explain why this antibody is apparently not inhibiting activation of PDGFR-α although it is still binding with high affinity to PDGF-C; this is under further investigation.

Assay [2] addresses T1, Recombinant human PDGF-C from R&D …. Put plainly: cell-based or functional assay.
Assay [3] has the same target. Briefly: cell-based or functional assay. This is another data set of the same source.
The target is the same in assay [4]. Put plainly: cell-based or functional assay. The source holds these as a separate data set.
For assay [5] the target is unchanged. Put plainly: SPR (Biacore 3000), antibody amine-coupled to CM5 chip, PDGF-C injected, 1:1 fit. As to the method:
as §1
On the technique in general: In SPR one partner is held on a chip, and binding of the other changes the refractive index at the surface.

Assay [6] shares this target. Briefly: cell-based or functional assay. This is another data set of the same source.
The target in assay [7] is T2, human PDGF-C peptide no. 58 (human).
T2 peptide: Biotin-VLQLRPKTGVRGLHK
Put plainly: peptide ELISA, signal to background >3. As to the method:
(§2) The indicated peptides where synthesized in an N-terminally biotinylated form and coated onto a neutravidin plate (Thermo Scientific, Cat. 15127) at a concentration of 10 μg/mL. […] Each antibody was tested at least twice, and up to 4 times. A “+” in the table indicate that a signal to background >3 was found and confirmed at least once. The background signal was measured in the absence of peptide using both the primary and the secondary antibodies.
Background: In an ELISA, binding on a coated surface is turned into a signal by an enzyme label.

Assay [8] addresses T3, human PDGF-C peptide no. 27 (human).
T3 peptide: Biotin-EPGFCIHYNIVMPQF
Briefly: peptide ELISA, signal to background >3. The procedure: as §2

Assay [9] has as its target T4, human PDGF-C peptide no. 9 (human).
T4 peptide: Biotin-FPHTYPRNTVLVWRL
Put plainly: peptide ELISA, signal to background >3. As to the method: as §2

Where two headings read alike, the source gives them in different places. Ends that are not written are not given here. * marks the point of attachment. Biotin = O=C1N[C@H]2[C@H](CS[C@H]2CCCCC(=O)*)N1

T1 sequence (Q9NRA1 235-345 limits assumed, form in doubt): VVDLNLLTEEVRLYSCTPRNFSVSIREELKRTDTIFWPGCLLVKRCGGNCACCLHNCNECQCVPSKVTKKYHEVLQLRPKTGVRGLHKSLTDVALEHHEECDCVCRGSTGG

B1: Humanized 5H7 anti-PDGF-C antibody (antibody, V domains shown)
VH: EVQLLESGGGLVQPGGSLRLSCAASGFTFSSYGMSWVRQTPGKGLEWVATIGYGGSFTYYPDSMKGRFTISRDNAKNTLYLQMNSLRAEDTAVYYCARQAPLWDYFDYWGQGTLLTVSS
VL: DVVMTQSPLSLPVTLGQPASISCRSSQTIVHSDGTTYLEWYLQKPGQSPRLLIYKVSNRFSGVPDRFSGSGSGTDFTLKISRVEAEDVGVYYCFQGSHVPPTFGQGTKLEIK
notes: also called humanized mAb 5H7
A word on the Kd: it is the equilibrium constant for the complex coming apart. Turning to B1, the Kd in assay [1] turned out to be 2.5 nM.

B2: Humanized 16B1 anti-PDGF-C antibody (antibody, V domains shown)
VH: EVQLLESGGGLVQPGGSLRLSCAASGFTFSNYGMSWVRQTPGKGLEWVATIGSGGSYTYYPDSVKGRFTISRDNAKNTLYLQMNSLRAEDTAVYYCARQAPLWDYSDYWGQGTLLTVSS
VL: DVVMTQSPLSLPVTLGQPASISCRSNQSIVHSNGDTYLEWYLQKPGQSPRLLIYKVSNRFSGVPDRFSGSGSGTDFTLKISRVEAEDVGVYYCFQGSHVPPTFGQGTKLEIK
notes: also called humanized mAb 16B1
With B2, the Kd in [1] was 0.8 nM. Further, in assay [2], the “IC50 value (nM), PathHunter PDGFRα assay” value was found to be 4.97 nM.

B3: anti-PDGF-C antibody 5A2 (antibody, IgG2b, V domains shown)
VH: EVQLVESGGDLVKPGGSLKLSCAASGFTFSNYGMSWVRQTPDKRLEWVATIGSGGHYTYYPDSVKGRFTISRDSAKSTLYLQMSSLKSEDTAIYYCARQAPLWDCSDYWGQGTTLTVSS
VL: DVLMTQTPLSLPVSLGDQASISCRSNQSIVHSNGDTYLEWYLQKPGQSPKLLIYKVSNRFSGVPDRFSGSGSGTDFTLKISRVEAEDLGVYYCFQGSHVPPTFGGGTKLEIK
notes: Mouse monoclonal from hybridoma, IgG2b, kappa; also called mAb 5A2; hybridoma LMBP 9484CB
Consider B3, for which, in assay [3], the “% PDGFRα activation in the PathHunter PDGFRα assay at 5.56 µg/ml antibody with PDGF-CC at EC80 (no Ab with PDGF-CC = 100, no Ab without PDGF-CC = 24)” value is 20%. Moreover, the “% PDGFRα activation in the PathHunter PDGFRα assay at 16.67 µg/ml antibody with PDGF-CC at EC80 (no Ab with PDGF-CC = 100, no Ab without PDGF-CC = 24)” value in assay [3] worked out at 17%. The “% PDGFRα activation in the PathHunter PDGFRα assay at 50 µg/ml antibody with PDGF-CC at EC80 (no Ab with PDGF-CC = 100, no Ab without PDGF-CC = 24)” value in assay [3] was 18%. Besides, the “% PDGF-Rα activation by PDGF-C allowed at 1.85 µg/mL antibody (100% = no antibody)” value (from here on “% PDGF-Rα activation … (100% = no antibody)”) in assay [4] stood at 30%. Moreover, the Kd in assay [5] stood at 5 nM. In addition, the “IC50 value (nM), PathHunter PDGFRα assay” value in assay [6] was 3.36 nM. For the same molecule, the binding result in assay [7], in assay [8] and in assay [9] was “binds” in each case.

B4: anti-PDGF-C antibody 5H7 (antibody, IgG1, V domains shown)
VH: EVQLVESGGDLVKPGGSLKLSCAASGFTFSSYGMSWVRQTPDKRLEWVATIGYGGSFTYYPDSMKGRFTISRDNAKNTLFLQMSSLKSEDTAIYYCVRQAPLWDYFDYWGQGTTLTVSS
VL: DVLMTQTPLSLPVSLGDQASISCRSSQTIVHSDGTTYLEWYLQKAGQSPKLLIYKVSNRFSGVPDRFSGSGSGTDFTLKISRVEAEDLGVYYCFQGSHVPPTFGGGTKLEIK
notes: Mouse monoclonal from hybridoma, IgG1, kappa; also called mAb 5H7; hybridoma LMBP 9485CB
Take B4: in assay [3], the “% PDGFRα activation in the PathHunter PDGFRα assay at 5.56 µg/ml antibody with PDGF-CC at EC80 (no Ab with PDGF-CC = 100, no Ab without PDGF-CC = 24)” value is 24%; the “% PDGFRα activation in the PathHunter PDGFRα assay at 16.67 µg/ml antibody with PDGF-CC at EC80 (no Ab with PDGF-CC = 100, no Ab without PDGF-CC = 24)” value was 22%; the “% PDGFRα activation in the PathHunter PDGFRα assay at 50 µg/ml antibody with PDGF-CC at EC80 (no Ab with PDGF-CC = 100, no Ab without PDGF-CC = 24)” value turned out to be 22%. For the same molecule, in assay [4], the “% PDGF-Rα activation … (100% = no antibody)” value was found to be 32%. In assay [5], the Kd worked out at 2.5 nM. In assay [6], the “IC50 value (nM), PathHunter PDGFRα assay” value is 5.57 nM. Besides, the binding result in assay [7] was “binds”.

B5: anti-PDGF-C antibody 29H1 (antibody, IgG1, V domains shown)
VH: EVQLVESGGDLVKPGGSLKLSCAASGFTFSNYGMSWVRQTPDKRLEWVATIGSGGHYTYYPDSVKGRFTISRDSAKSTLYLQMSSLRSDDTAIYYCARQAPLWDCSDYWGQGTTLTVSS
VL: DVLMTQTPLSLPVSLGDQASISCRSNQSIVHSNGDTYLEWYLQKPGQSPNLLIYKVSNRFSGVPDRFSGSGSGTDFTLKISRVEAEDLGVYYCFQGSHVPPTFGGGTKLEIK
notes: Mouse monoclonal from hybridoma, IgG1, kappa; also called mAb 29H1; hybridoma LMBP 9487CB
In the case of B5, in assay [3], the “% PDGFRα activation in the PathHunter PDGFRα assay at 5.56 µg/ml antibody with PDGF-CC at EC80 (no Ab with PDGF-CC = 100, no Ab without PDGF-CC = 24)” value came out at 22%; the “% PDGFRα activation in the PathHunter PDGFRα assay at 16.67 µg/ml antibody with PDGF-CC at EC80 (no Ab with PDGF-CC = 100, no Ab without PDGF-CC = 24)” value came out at 21%; the “% PDGFRα activation in the PathHunter PDGFRα assay at 50 µg/ml antibody with PDGF-CC at EC80 (no Ab with PDGF-CC = 100, no Ab without PDGF-CC = 24)” value worked out at 22%. Further, in assay [4], the “% PDGF-Rα activation … (100% = no antibody)” value is 23%. Moreover, the Kd in assay [5] worked out at 1.5 nM. Moreover, the binding result in assay [7] is reported as “binds”.

B6: anti-PDGF-C antibody 16B1 (antibody, IgG1, V domains shown)
VH: EVQLVESGGDLVKPGGSLKLSCAASGFTFSNYGMSWVRQTPDKRLEWVATIGSGGSYTYYPDSVKGRFTISRDSAKNTLYLQMSSLKSEDTAMYYCARQAPLWDYSDYWGQGTTLTVSS
VL: DVLMTQTPLSLPVSLGDQASISCRSNQSIVHSNGDTYLEWYLQKPGQSPKLLIYKVSNRFSGVPDRFSGSGSGTDFTLKISRVEAEDLGVYYCFQGSHVPPTFGGGTKLEIK
notes: Mouse monoclonal from hybridoma, IgG1, kappa; VH same as 2D3, VL same as 5A2; also called mAb 16B1; hybridoma LMBP 9486CB
With B6, in assay [3], the “% PDGFRα activation in the PathHunter PDGFRα assay at 5.56 µg/ml antibody with PDGF-CC at EC80 (no Ab with PDGF-CC = 100, no Ab without PDGF-CC = 24)” value was 24%; the “% PDGFRα activation in the PathHunter PDGFRα assay at 16.67 µg/ml antibody with PDGF-CC at EC80 (no Ab with PDGF-CC = 100, no Ab without PDGF-CC = 24)” value came to 23%; the “% PDGFRα activation in the PathHunter PDGFRα assay at 50 µg/ml antibody with PDGF-CC at EC80 (no Ab with PDGF-CC = 100, no Ab without PDGF-CC = 24)” value is 20%. Also, the “% PDGF-Rα activation … (100% = no antibody)” value in [4] was 38%. In addition, the Kd in assay [5] was determined as 1.2 nM. Further, the “IC50 value (nM), PathHunter PDGFRα assay” value in assay [6] turned out to be 8.38 nM.

B7: anti-PDGF-C antibody 2D3 (antibody, IgG1, V domains shown)
VH: EVQLVESGGDLVKPGGSLKLSCAASGFTFSNYGMSWVRQTPDKRLEWVATIGSGGSYTYYPDSVKGRFTISRDSAKNTLYLQMSSLKSEDTAMYYCARQAPLWDYSDYWGQGTTLTVSS
VL: DVLMTQTPLSLPVSLGDQASISCRSNQTIVHSNGDTYLEWYLQKPGQSPNLLIYKVSNRFSGVPDRFSGSGSGTDFTLKISRVEAEDLGVYYCFQGSHVPPTFGGGTKLEIK
notes: Mouse monoclonal from hybridoma, IgG1, kappa; also called mAb 2D3; hybridoma LMBP 9483CB
Regarding B7, in assay [3], the “% PDGFRα activation in the PathHunter PDGFRα assay at 5.56 µg/ml antibody with PDGF-CC at EC80 (no Ab with PDGF-CC = 100, no Ab without PDGF-CC = 24)” value worked out at 32%; the “% PDGFRα activation in the PathHunter PDGFRα assay at 16.67 µg/ml antibody with PDGF-CC at EC80 (no Ab with PDGF-CC = 100, no Ab without PDGF-CC = 24)” value is 24%; the “% PDGFRα activation in the PathHunter PDGFRα assay at 50 µg/ml antibody with PDGF-CC at EC80 (no Ab with PDGF-CC = 100, no Ab without PDGF-CC = 24)” value was determined as 23%. In addition, the “% PDGF-Rα activation … (100% = no antibody)” value in assay [4] is 49%. The Kd in assay [5] worked out at 1.5 nM. Further, the “IC50 value (nM), PathHunter PDGFRα assay” value in assay [6] came out at 7.47 nM.

B8: recombinant human PDGFRα Fc chimera (6765-PR from R&D Systems) (Fc fusion, not shown: a dimerising Fc or GST)
chain: QLSLPSILPNENEKVVQLNSSFSLRCFGESEVSWQYPMSEEESSDVEIRNEENNSGLFVTVLEVSSASAAHTGLYTCYYNHTQTEENELEGRHIYIYVPDPDVAFVPLGMTDYLVIVEDDDSAIIPCRTTDPETPVTLHNSEGVVPASYDSRQGFNGTFTVGPYICEATVKGKKFQTIPFNVYALKATSELDLEMEALKTVYKSGETIVVTCAVFNNEVVDLQWTYPGEVKGKGITMLEEIKVPSIKLVYTLTVPEATVKDSGDYECAARQATREVKEMKKVTISVHEKGFIEIKPTFSQLEAVNLHEVKHFVVEVRAYPPPRISWLKNNLTLIENLTEITTDVEKIQEIRYRSKLKLIRAKEEDSGHYTIVAQNEDAVKSYTFELLTQVPSSILDLVDDHHGSTGGQTVRCTAEGTPLPDIEWMICKDIKKCNNETSWTILANNVSNIITEIHSRDRSTVEGRVTFAKVEETIAVRCLAKNLLGAENRELKLVAPTLRSEIEGRMD
With B8, the “IC50 value (nM), PathHunter PDGFRα assay” value in assay [6] is 0.65 nM.

These data come from patent publication US20150232546A1 (THROMBOGENICS, published 2015).
